Assay results reported in the PETadex activity labels (doi:10.1126/science.aad6359).

Experiments:
BHET = experiment: Proxy for plastic degradation [kcat] (s⁻¹); conditions: pH 7
hcPET = experiment: Proxy for plastic degradation [Released monomer concentration (HPLC/LC-MS) (MHET+TPA)]; conditions: pH 9
PET = experiment: Proxy for plastic degradation [Released monomer concentration (HPLC/LC-MS) (TPA+MHET+BHET)]
[1] = substrate: pNP-C2; pNP-C4; pNP-C6; pNP-C8; experiment: Proxy for plastic degradation [kcat] (s⁻¹); conditions: pH 7
MHET = conditions: pH 7; 30 °C; part of the chain shown

Protein | Proxy for plastic degradation (BHET) | Proxy for plastic degradation (hcPET) | Proxy for plastic degradation (PET; pH 7) | Proxy for plastic degradation (PET; pH 9, 20 °C) | Proxy for plastic degradation (PET; pH 9, 30 °C) | Proxy for plastic degradation (PET; pH 9, 35 °C) | Proxy for plastic degradation (PET; pH 9, 40 °C) | Proxy for plastic degradation (PET; pH 9, 50 °C) | Proxy for plastic degradation (PET; pH 9, 60 °C) | Proxy for plastic degradation (PET; pH 9, 70 °C) | Proxy for plastic degradation (PET; pH 9, 80 °C) | Proxy for plastic degradation [1] | Proxy for plastic degradation (PET; 0 h) | Km (MHET) | kcat (MHET) | kcat/Km (MHET)
unnamed (protein) MDGVLWRVRTAALMAALLALAAWALWASPSVEAQSNPYQRGPNPTRSALTADGPFSVATYTVSRLSVSGFGGGVIYYPTGTSLTFGGIAMSPGYTADASSLAWLGRRLASHGFVVLVINTNSRFDYPDSRASQLSAALNYLRTSSPSAVRARLDNARLAVAGHSMGGGGTLRIAEQNPSLKAAVPLTPWHTDKTFNTSVPVLIVGAEADTVAPVSQHAIPFYQNLPSTTPKVYVELDNASHFAPNSNNAAISVYTISWMKLWVDNDTRYRQFLCNVNDPALSFDRTNNRHCQ | 0.1 | 0.001 mM | 0.05 mM | 0.0005 mM | 0.01 mM | 0.01 mM | 0.15 mM | 1.2 mM | 3.5 mM | 2 mM |  |  |  |  |  | 
unnamed (protein) MAVMTPRRERSSLLSRALQVTAAAATALVTVSLAAPAHAANPYARGPNPTDALLEASSGPFSVSEENVSRLSASGFGGGIYYPRENNTYGAVAISPGYTGTEASIAWLGERIASHGFVVITIDTITTLDQPDSRAEQLNAALNHMINRASSTVRSRIDSSRLAVMGHSMGGGGTLRLASQRPDLKAAIPLTPWHLNKNWSSVTVPTLIIGADLDTIAPVATHAKPFYNSLPSSISKAYLELDGATHFAPNIPNKIIGKYSVAWLKRFVDNDTRYTQFLCPGPRDGLFGEVEYRSTCPF | 0.03 | 0.001 mM | 0.003 mM | 0.0001 mM | 0.0001 mM | 0.0001 mM | 0.001 mM | 0.009 mM | 0.015 mM | 0.01 mM | 0.001 mM |  |  |  |  | 
unnamed (protein) MNFPRASRLMQAAVLGGLMAVSAAATAQTNPYARGPNPTAASLEASAGPFTVRSFTVSRPSGYGAGTVYYPTNAGGTVGAIAIVPGYTARQSSIKWWGPRLASHGFVVITIDTNSTLDQPSSRSSQQMAALRQVASLNGTSSSPIYGVKTARMVMGWSMGGGGSLISAANNPSLKAAAPQAPWDSSTNFSSVTVPTLIFACENDSIAPVNSSALPIYDSMSRNAKQFLEINGGSHSCANSGNSNQALIGKKGVAWMKRFMDNDTRYSTFACENPNSTRVSDFRTANCS | 0.8 | 0.01 mM | 0.32 mM | 0.001 mM | 0.01 mM | 0.02 mM | 0.03 mM | 0.005 mM | 0.0001 mM | 0.0001 mM | 0.0001 mM | 0.005 | 0 mM |  |  | 
unnamed (protein) MQTTVTTMLLASVALAACAGGGSTPLPLPQQQPPQQEPPPPPVPLASRAACEALKDGNGDMVWPNAATVVEVAAWRDAAPATASAAALPEHCEVSGAIAKRTGIDGYPYEIKFRLRMPAEWNGRFFMEGGSGTNGSLSAATGSIGGGQIASALSRNFATIATDGGHDNAVNDNPDALGTVAFGLDPQARLDMGYNSYDQVTQAGKAAVARFYGRAADKSYFIGCSEGGREGMMLSQRFPSHYDGIVAGAPGYQLPKAGISGAWTTQSLAPAAVGLDAQGVPLINKSFSDADLHLLSQAILGTCDALDGLADGIVDNYRACQAAFDPATAANPANGQALQCVGAKTADCLSPVQVTAIKRAMAGPVNSAGTPLYNRWAWDAGMSGLSGTTYNQGWRSWWLGSFNSSANNAQRVSGFSARSWLVDFATPPEPMPMTQVAARMMKFDFDIDPLKIWATSGQFTQSSMDWHGATSTDLAAFRDRGGKMILYHGMSDAAFSALDTADYYERLGAAMPGAAGFARLFLVPGMNHCSGGPGTDRFDMLTPLVAWVERGEAPDQISAWSGTPGYFGVAARTRPLCPYPQIARYKGSGDINTEANFACAAPP |  |  |  |  |  |  |  |  |  |  |  |  |  | 7.3 µM | 31 s⁻¹ | 4.25e+06 M⁻¹ s⁻¹
